T1: CEACAM1 (Sino Biological) (human, UniProt P13688 35-428, limits assumed)
T1 construct: may be the same as CEACAM1-HIS; also called hCEACAM1; biotinylated soluble CEACAM1
T1 sequence: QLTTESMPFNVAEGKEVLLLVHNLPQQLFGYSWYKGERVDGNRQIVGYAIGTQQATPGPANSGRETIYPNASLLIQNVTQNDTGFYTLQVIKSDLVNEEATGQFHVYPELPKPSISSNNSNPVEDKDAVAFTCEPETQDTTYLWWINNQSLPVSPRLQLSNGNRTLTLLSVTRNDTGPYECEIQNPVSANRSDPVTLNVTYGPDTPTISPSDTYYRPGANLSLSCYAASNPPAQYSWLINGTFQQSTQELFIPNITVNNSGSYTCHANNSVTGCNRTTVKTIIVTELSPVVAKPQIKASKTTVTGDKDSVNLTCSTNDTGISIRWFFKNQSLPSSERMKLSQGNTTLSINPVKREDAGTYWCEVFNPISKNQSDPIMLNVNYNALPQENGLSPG


Biological target: T1, CEACAM1 (Sino Biological)
Assay: SPR single-cycle
Outline: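 Humanized affinity-matured IgGs from crude supernatants captured on Protein A to ~100 RU, with CEACAM1 analyte injected at 25–100 nM (three-point, two-fold) in HBS-P+ without regeneration. 200 s association per injection, 300 s single dissociation; reference-channel and blank subtracted.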

| Kd [nM] | fold better than Parent (KD) [fold] | Binder |
| --- | --- | --- |
| 93 | 1.7 | He14/L4 #1 (antibody, IgG4, V domains shown, IgG4 S241P, kappa) VH: EVQLLESGGGLVQPGGSLRLSCAASGFSFSDYYLYWVRQAPGKGLEWVATISVGGGQTSYADSVKGRFTISRDNSKNTLYLQMNSLRAEDTAMYYCTRGLYYGPSWVAYWGQGTLVTVSS VL: DIVMTQSPDSLAVSLGERATINCKSSQSLLNSANQKNYLAWYQQKPGQPPKLLIYFASTRESGVPDRFSGSGSGTDFTLTISSLQAEDVAVYYCQSHFPYYYTFGGGTKVEIK |
| 97 | 1.64 | He14/L17 (antibody, IgG4, V domains shown, IgG4 S241P, kappa) VH: EVQLLESGGGLVQPGGSLRLSCAASGFSFSDYYLYWVRQAPGKGLEWVATISVGGGQTSYADSVKGRFTISRDNSKNTLYLQMNSLRAEDTAMYYCTRGLYYGPSWVAYWGQGTLVTVSS VL: DIVMTQSPDSLAVSLGERATINCKSSQSLLNSANQKNYLAWYQQKPGQPPKLLIYFASTRESGVPDRFSGSGSGTDFTLTISSLQAEDVAVYYCQSHYPYPYTFGGGTKVEIK |
| 102 | 1.56 | He14/L5 (antibody, IgG4, V domains shown, IgG4 S241P, kappa) VH: EVQLLESGGGLVQPGGSLRLSCAASGFSFSDYYLYWVRQAPGKGLEWVATISVGGGQTSYADSVKGRFTISRDNSKNTLYLQMNSLRAEDTAMYYCTRGLYYGPSWVAYWGQGTLVTVSS VL: DIVMTQSPDSLAVSLGERATINCKSSQSLLNSANQKNYLAWYQQKPGQPPKLLIYFASTRESGVPDRFSGSGSGTDFTLTISSLQAEDVAVYYCQSHYPFAFTFGGGTKVEIK |
| 93 | 1.7 | He14/L16 (antibody, IgG4, V domains shown, IgG4 S241P, kappa) VH: EVQLLESGGGLVQPGGSLRLSCAASGFSFSDYYLYWVRQAPGKGLEWVATISVGGGQTSYADSVKGRFTISRDNSKNTLYLQMNSLRAEDTAMYYCTRGLYYGPSWVAYWGQGTLVTVSS VL: DIVMTQSPDSLAVSLGERATINCKSSQSLLNSANQKNYLAWYQQKPGQPPKLLIYFASTRESGVPDRFSGSGSGTDFTLTISSLQAEDVAVYYCQSHYPYPFTFGGGTKVEIK |
| 104 | 1.53 | He17/L17 (antibody, IgG4, V domains shown, IgG4 S241P, kappa) VH: EVQLLESGGGLVQPGGSLRLSCAASGFSFSDYYLYWVRQAPGKGLEWVATISVGGGQTSYADSVKGRFTISRDNSKNTLYLQMNSLRAEDTAMYYCTRARTYGPAWFAYWGQGTLVTVSS VL: DIVMTQSPDSLAVSLGERATINCKSSQSLLNSANQKNYLAWYQQKPGQPPKLLIYFASTRESGVPDRFSGSGSGTDFTLTISSLQAEDVAVYYCQSHYPYPYTFGGGTKVEIK |
| 114 | 1.39 | He14/L20 (antibody, IgG4, V domains shown, IgG4 S241P, kappa) VH: EVQLLESGGGLVQPGGSLRLSCAASGFSFSDYYLYWVRQAPGKGLEWVATISVGGGQTSYADSVKGRFTISRDNSKNTLYLQMNSLRAEDTAMYYCTRGLYYGPSWVAYWGQGTLVTVSS VL: DIVMTQSPDSLAVSLGERATINCKSSQSLLNSANQKNYLAWYQQKPGQPPKLLIYFASTRESGVPDRFSGSGSGTDFTLTISSLQAEDVAVYYCQSHFPYPLTFGGGTKVEIK |
| 88 | 1.8 | He14/Parent VL (antibody, IgG4, V domains shown, IgG4 S241P, kappa) VH: EVQLLESGGGLVQPGGSLRLSCAASGFSFSDYYLYWVRQAPGKGLEWVATISVGGGQTSYADSVKGRFTISRDNSKNTLYLQMNSLRAEDTAMYYCTRGLYYGPSWVAYWGQGTLVTVSS VL: not shown |
| 87 | 1.83 | He14/L19 (antibody, IgG4, V domains shown, IgG4 S241P, kappa) VH: EVQLLESGGGLVQPGGSLRLSCAASGFSFSDYYLYWVRQAPGKGLEWVATISVGGGQTSYADSVKGRFTISRDNSKNTLYLQMNSLRAEDTAMYYCTRGLYYGPSWVAYWGQGTLVTVSS VL: DIVMTQSPDSLAVSLGERATINCKSSQSLLNSANQKNYLAWYQQKPGQPPKLLIYFASTRESGVPDRFSGSGSGTDFTLTISSLQAEDVAVYYCQSHIYPNFTFGGGTKVEIK |
| 165 | 0.96 | He17/L4 #1 (antibody, IgG4, V domains shown, IgG4 S241P, kappa) VH: EVQLLESGGGLVQPGGSLRLSCAASGFSFSDYYLYWVRQAPGKGLEWVATISVGGGQTSYADSVKGRFTISRDNSKNTLYLQMNSLRAEDTAMYYCTRARTYGPAWFAYWGQGTLVTVSS VL: DIVMTQSPDSLAVSLGERATINCKSSQSLLNSANQKNYLAWYQQKPGQPPKLLIYFASTRESGVPDRFSGSGSGTDFTLTISSLQAEDVAVYYCQSHFPYYYTFGGGTKVEIK |
| 91 | 1.75 | He14/L18 (antibody, IgG4, V domains shown, IgG4 S241P, kappa) VH: EVQLLESGGGLVQPGGSLRLSCAASGFSFSDYYLYWVRQAPGKGLEWVATISVGGGQTSYADSVKGRFTISRDNSKNTLYLQMNSLRAEDTAMYYCTRGLYYGPSWVAYWGQGTLVTVSS VL: DIVMTQSPDSLAVSLGERATINCKSSQSLLNSANQKNYLAWYQQKPGQPPKLLIYFASTRESGVPDRFSGSGSGTDFTLTISSLQAEDVAVYYCQSHFPYPFTFGGGTKVEIK |
| 396 | 1.39 | He14/L4#2 (antibody, IgG4, V domains shown, IgG4 S241P, kappa) VH: EVQLLESGGGLVQPGGSLRLSCAASGFSFSDYYLYWVRQAPGKGLEWVATISVGGGQTSYADSVKGRFTISRDNSKNTLYLQMNSLRAEDTAMYYCTRGLYYGPSWVAYWGQGTLVTVSS VL: DIVMTQSPDSLAVSLGERATINCKSSQSLLNSANQKNYLAWYQQKPGQPPKLLIYFASTRESGVPDRFSGSGSGTDFTLTISSLQAEDVAVYYCQSHYPYPYTFGGGTKVEIK |
| 95 | 1.68 | He17/L3 (antibody, IgG4, V domains shown, IgG4 S241P, kappa) VH: EVQLLESGGGLVQPGGSLRLSCAASGFSFSDYYLYWVRQAPGKGLEWVATISVGGGQTSYADSVKGRFTISRDNSKNTLYLQMNSLRAEDTAMYYCTRARTYGPAWFAYWGQGTLVTVSS VL: DIVMTQSPDSLAVSLGERATINCKSSQSLLNSANQKNYLAWYQQKPGQPPKLLIYFASTRESGVPDRFSGSGSGTDFTLTISSLQAEDVAVYYCQSHFPFPFTFGGGTKVEIK |
| 82 | 1.95 | He17/L2 (antibody, IgG4, V domains shown, IgG4 S241P, kappa) VH: EVQLLESGGGLVQPGGSLRLSCAASGFSFSDYYLYWVRQAPGKGLEWVATISVGGGQTSYADSVKGRFTISRDNSKNTLYLQMNSLRAEDTAMYYCTRARTYGPAWFAYWGQGTLVTVSS VL: DIVMTQSPDSLAVSLGERATINCKSSQSLLNSANQKNYLAWYQQKPGQPPKLLIYFASTRESGVPDRFSGSGSGTDFTLTISSLQAEDVAVYYCQSHYPFPYTFGGGTKVEIK |
| 81 | 1.97 | He17/L5 (antibody, IgG4, V domains shown, IgG4 S241P, kappa) VH: EVQLLESGGGLVQPGGSLRLSCAASGFSFSDYYLYWVRQAPGKGLEWVATISVGGGQTSYADSVKGRFTISRDNSKNTLYLQMNSLRAEDTAMYYCTRARTYGPAWFAYWGQGTLVTVSS VL: DIVMTQSPDSLAVSLGERATINCKSSQSLLNSANQKNYLAWYQQKPGQPPKLLIYFASTRESGVPDRFSGSGSGTDFTLTISSLQAEDVAVYYCQSHYPFAFTFGGGTKVEIK |
| 135 | 1.18 | He17/L19 (antibody, IgG4, V domains shown, IgG4 S241P, kappa) VH: EVQLLESGGGLVQPGGSLRLSCAASGFSFSDYYLYWVRQAPGKGLEWVATISVGGGQTSYADSVKGRFTISRDNSKNTLYLQMNSLRAEDTAMYYCTRARTYGPAWFAYWGQGTLVTVSS VL: DIVMTQSPDSLAVSLGERATINCKSSQSLLNSANQKNYLAWYQQKPGQPPKLLIYFASTRESGVPDRFSGSGSGTDFTLTISSLQAEDVAVYYCQSHIYPNFTFGGGTKVEIK |
| 258 | 2.14 | He17/L4#2 (antibody, IgG4, V domains shown, IgG4 S241P, kappa) VH: EVQLLESGGGLVQPGGSLRLSCAASGFSFSDYYLYWVRQAPGKGLEWVATISVGGGQTSYADSVKGRFTISRDNSKNTLYLQMNSLRAEDTAMYYCTRARTYGPAWFAYWGQGTLVTVSS VL: DIVMTQSPDSLAVSLGERATINCKSSQSLLNSANQKNYLAWYQQKPGQPPKLLIYFASTRESGVPDRFSGSGSGTDFTLTISSLQAEDVAVYYCQSHYPYPYTFGGGTKVEIK |
| 111 | 1.43 | He14/L6 (antibody, IgG4, V domains shown, IgG4 S241P, kappa) VH: EVQLLESGGGLVQPGGSLRLSCAASGFSFSDYYLYWVRQAPGKGLEWVATISVGGGQTSYADSVKGRFTISRDNSKNTLYLQMNSLRAEDTAMYYCTRGLYYGPSWVAYWGQGTLVTVSS VL: DIVMTQSPDSLAVSLGERATINCKSSQSLLNSANQKNYLAWYQQKPGQPPKLLIYFASTRESGVPDRFSGSGSGTDFTLTISSLQAEDVAVYYCQSHYPFSFTFGGGTKVEIK |
| 79 | 2.01 | He17/L6 (antibody, IgG4, V domains shown, IgG4 S241P, kappa) VH: EVQLLESGGGLVQPGGSLRLSCAASGFSFSDYYLYWVRQAPGKGLEWVATISVGGGQTSYADSVKGRFTISRDNSKNTLYLQMNSLRAEDTAMYYCTRARTYGPAWFAYWGQGTLVTVSS VL: DIVMTQSPDSLAVSLGERATINCKSSQSLLNSANQKNYLAWYQQKPGQPPKLLIYFASTRESGVPDRFSGSGSGTDFTLTISSLQAEDVAVYYCQSHYPFSFTFGGGTKVEIK |
| 98 | 1.62 | He17/L18 (antibody, IgG4, V domains shown, IgG4 S241P, kappa) VH: EVQLLESGGGLVQPGGSLRLSCAASGFSFSDYYLYWVRQAPGKGLEWVATISVGGGQTSYADSVKGRFTISRDNSKNTLYLQMNSLRAEDTAMYYCTRARTYGPAWFAYWGQGTLVTVSS VL: DIVMTQSPDSLAVSLGERATINCKSSQSLLNSANQKNYLAWYQQKPGQPPKLLIYFASTRESGVPDRFSGSGSGTDFTLTISSLQAEDVAVYYCQSHFPYPFTFGGGTKVEIK |

Reference: patent publication US20250388666A1 (BRIGHAM AND WOMEN S HOSPITAL, published 2025)
